# Measurements from paper PMC6053351 (2017).
# Columns and labels:
# Test in all cases: ITC
# [1] = target: RBBP4, full-length, wild type (UniProt Q09028 1-425)
# [2] = target: RBBP4 Glu126Ala/Asn128Ala/Glu179Ala (UniProt Q09028 1-425, Glu126Ala | Asn128Ala | Glu179Ala)
# [3] = target: RBBP4 Glu231Ala (UniProt Q09028 1-425, Glu231Ala)
# Sequence of RBBP4 Glu231Ala (Q09028 whole entry E231A): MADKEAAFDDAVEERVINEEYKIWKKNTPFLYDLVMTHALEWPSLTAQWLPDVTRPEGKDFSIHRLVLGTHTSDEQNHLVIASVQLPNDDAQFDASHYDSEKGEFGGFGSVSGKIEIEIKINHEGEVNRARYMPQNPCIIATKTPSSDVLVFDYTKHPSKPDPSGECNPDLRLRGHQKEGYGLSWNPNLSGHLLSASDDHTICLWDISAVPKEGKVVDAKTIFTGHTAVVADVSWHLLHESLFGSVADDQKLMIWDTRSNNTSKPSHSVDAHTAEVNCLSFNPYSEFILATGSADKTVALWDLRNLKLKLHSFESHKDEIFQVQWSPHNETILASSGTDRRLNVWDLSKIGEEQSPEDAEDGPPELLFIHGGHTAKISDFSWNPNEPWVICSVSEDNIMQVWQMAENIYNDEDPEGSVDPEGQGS
# Sequence of RBBP4 Glu126Ala/Asn128Ala/Glu179Ala (Q09028 whole entry E126A/N128A/E179A): as the sequence (Q09028 whole entry E231A) above, with E126A, N128A, E179A, A231E counted along it
# Sequence of RBBP4, full-length, wild type (Q09028 whole entry): as the sequence (Q09028 whole entry E231A) above, with A231E counted along it
Kd [1],Kd [2],Kd [3],Binder
178 µM,–,–,KARALKNKRRRS [AEBP2_(379–390) peptide with mutations Arg380Ala/Lys382Ala]
–,56.8 µM,38.5 µM,"KRRKLKNKRRRS [AEBP2_(379–390) peptide (RRK-rich motif, residues Lys379–Ser390)]"
